Source: patent US20200330603A1, “PEPTIDES FOR RENAL THERAPY” (FRED HUTCHINSON CANCER RESEARCH CENTER, priority 2015, published 2020)
“And” between values parts separate entries of the source, which are not always exact repeats. Equal entries are not always repeated. Ends that are not written are not given here.

Key:
[1] = Plasma creatinine, Jaffe reaction method (Example 14); type: in vivo, mice; settings: 100 nmol iv
Experimental: (§1) This example illustrates assessment of renal injury by peptides of this disclosure. Mice were injected intravenously at a dose of 100 nmol, which is approximately 16 mg/kg. PBS was administered as a negative control. At 24 hours post-peptide administration, mice were euthanized and plasma blood urea nitrogen (BUN) and plasma creatinine were measured. The blood urea nitrogen (BUN) assay was performed to assess renal toxicity with a commercially available kit. Plasma creatinine concentrations were determined using the colorimetrically corrected Jaffe reaction method. Additionally, the kidneys from these mice were removed, sectioned, and stained using periodic acid Schiff (PAS). […] Histological analysis corroborated the mRNA/protein data.

[2] = Blood urea nitrogen (BUN) assay in plasma, renal biocompatibility (Example 4); type: in vivo, mice; settings: 100 nmol per mouse intravenously, after 24 hours, one value per mouse
Experimental: This example describes renal biocompatibility of peptides of this disclosure. The peptides of SEQ ID NO: 18, SEQ ID NO: 20, SEQ ID NO: 21, SEQ ID NO: 26, SEQ ID NO: 36, SEQ ID NO: 39, SEQ ID NO: 45 and SEQ ID NO: 53 were intravenously dosed into mice at 100 nmol per mouse. After 24 hours, mice were anesthesized with Ketamine-Xylazine and euthanized. Plasma and kidneys were removed as quickly as possible after euthanization. A blood urea nitrogen (BUN) assay was performed to assess renal toxicity with a commercially available kit.
The average BUN concentration in plasma for naïve mice was 25 mg/dL, with a standard error of 2 mg/dL. The average BUN concentration in plasma for peptide-dosed mice was 21, with a standard error of 1 mg/dL.

[3] = Plasma BUN, assessment of renal injury (Example 14); type: in vivo, mice
Experimental: as §1

[4] = Kidney histology, periodic acid Schiff (PAS) stain; type: in vivo, mice; settings: 24 hours after intravenous administration of 100 nmol
Experimental: as §1

[5] = system: pepsin; experiment: Peptide stability in the presence of pepsin, RP-HPLC; type: in vitro ADME; settings: 20 μg pepsin, pH 1.05, 30 minutes at 37.5° C.
Experimental: (§2) This example describes peptide stability in the presence of pepsin, trypsin, a reducing agent, or elevated temperature. Peptides were first suspended in 500 µl of ddH2O to a stock concentration of 2 mg/ml. […] These reactions were then quenched with 5 μg of soybean trypsin inhibitor (I) and, in some cases, 10 mM dithiothreitol (DTT). […] Temperature stability was tested by incubating peptides in non-reducing conditions at 70° C. for 1 hour. Stability was evaluated by RP-HPLC.

[6] = system: trypsin; experiment: Peptide stability in the presence of trypsin, RP-HPLC; type: in vitro ADME; settings: 5 μg trypsin, pH 7.0, 30 minutes at 37.5° C.
Experimental: as §2

[7] = Temperature stability at 70° C., RP-HPLC; type: physicochemical; settings: non-reducing conditions, 70° C. for 1 hour
Experimental: as §2

[8] = Peptide stability to a reducing agent (DTT), RP-HPLC; type: physicochemical; settings: 10 mM DTT in PBS, room temperature, 30 minutes
Experimental: as §2

[9] = system: MCP-1 mRNA; experiment: Stress-induced mRNA by RT-PCR, MCP-1; type: in vivo, mice; settings: four hours post-peptide administration
Experimental: (§3) At four hours post-peptide administration, potential renal injury was assessed by measuring three stress-induced mRNAs (MCP-1, NGAL, and TNFa).

[10] = system: TNFa mRNA; experiment: Stress-induced mRNA by RT-PCR, TNFa; type: in vivo, mice; settings: four hours post-peptide administration
Experimental: as §3

[11] = Whole body autoradiography of 14C labeled peptides, renal cortex and blood; type: in vivo, mice; settings: for Signal ratio Kidney:Blood (3 hours) / Signal ratio Kidney:Blood (24 hours): renal cortex vs blood from the ventricle, 100 nmol iv; for Pixel density-Bkg/area (3 hours) / Pixel density-Bkg/area (24 hours): renal cortex, 100 nmol 14C labeled peptide iv
From the text: This example describes radiolabeling of peptides of this disclosure. Several knotted peptides were radiolabeled by reductive methylation with ^14C formaldehyde and sodium cyanoborohydride with standard techniques. The sequences were engineered to have the amino acids, “G” and “S” at the N terminus. See Methods in Enzymology V91:1983 p. 570 and JBC 254(11):1979 p. 4359. An excess of formaldehyde was used to ensure complete methylation (dimethylation of every free amine). The labeled peptides were isolated via solid-phase extraction on Strata-X columns (Phenomenex 8B-S100-AAK), rinsed with water with 5% methanol, and recovered in methanol with 2% formic acid. Solvent was subsequently removed in a blowdown evaporator with gentle heat and a stream of nitrogen gas. The final product was verified and characterized by high performance liquid chromatography (HPLC).
This example illustrates accumulation of peptides of the present disclosure in kidneys measured by whole body autoradiography. Peptides of the present disclosure were radiolabeled as described in EXAMPLE 2. 100 nmol of ^14C labeled peptides were administered intravenously in mice. Radiolabeled peptide signal was quantified in the renal cortex and blood from the ventricle in 2-3 sections per mouse in 2 mice total. Whole body autoradiography analysis was performed with AIDA.
SEQ ID NO: 55 and SEQ ID NO: 119 ([…]), a linearized version of SEQ ID NO: 55, were radiolabeled with ^14C as described in EXAMPLE 2 and administered intravenously in mice at a dose of 100 nmol. Radiolabeled peptide signal was quantified in the renal cortex and blood from the ventricle in 2-3 sections per mouse in 2 mice total. Whole body autoradiography analysis was performed with AIDA.

[12] = system: HO-1 mRNA; experiment: mRNA by RT-PCR, HO-1; type: in vivo, mice; settings: four hours post-peptide administration
[13] = system: NGAL mRNA; experiment: Stress-induced mRNA by RT-PCR, NGAL; type: in vivo, mice; settings: four hours post-peptide administration
Experimental: as §3

[14] = Competitive renal uptake studies, fluorescence imaging of whole organs; type: in vivo, mice; settings: 2 nmol SEQ ID NO: 4-AF647 co-injected with 100 or 2000 nmol competitor, 1 hour
Experimental: This example describes competitive uptake studies of peptides of this disclosure in kidneys. Peptides of this disclosure were compared to known kidney homers (“competitors”) to assess the efficiency and strength of kidney targeting. Three competitors were tested against a peptide of SEQ ID NO: 4, and kidney uptake was quantified by fluorescence imaging of whole organs on a Spectrum IVIS imager.
Kidneys from uninjected mice were used as a negative control. Fluorescence signal in each group was quantified to determine the average radiant efficiency in the kidneys from three mice per cohort. Data are shown as mean and error bars indicate standard deviation. A p-value of 0.0081 was calculated by a T-test, and the error bars indicate standard deviation. In this experiment, the unlabeled SEQ ID NO: 4 peptide competed with the SEQ ID NO: 4-AF647 as shown by decreased fluorescence and thus, decreased accumulation of the dye labeled peptide in the kidney. […] Fluorescence signal in each group was quantified to determine the average radiant efficiency in the kidneys from three mice per cohort. Data are shown as mean and error bars indicate standard deviation. Kidney uptake of a peptide of SEQ ID NO: 4-AF647 was not dampened by SEQ ID NO: 121 peptide even at the highest ratio of competitor. […] Fluorescence signal in each group was quantified to determine the average radiant efficiency in the kidneys from three mice per cohort. Data are shown as mean and error bars indicate standard deviation. A p-value of 0.015 was calculated by a Student's unpaired t-test.

[15] = Table 3, 24 hours post-peptide administration
[16] = Table 3, 100 nmol iv (approximately 16 mg/kg), 24 hours post-peptide administration
[17] = Table 4, time not stated for this column (mRNAs at four hours)
[18] = Table 4, 100 nmol iv, time not stated for this column (mRNAs at four hours)

Sequence | Plasma Creatinine [1, 15] [mg/dL] | Peptide BUN [2] | Plasma BUN [3, 16] [mg/dL] | renal physiology (PAS histology, FIG. 24) [4] | Pepsin [5] | Trypsin [6] | Temperature (70° C.) [7] | Reduction [8] | mMCP-1/GAPDH [9] | Plasma Creatinine [1, 17] [mg/dL] | Plasma BUN [3, 18] [mg/dL] | mTNFa/GAPDH [10] | Signal ratio Kidney:Blood (3 hours) [11] | Signal ratio Kidney:Blood (24 hours) [11] | Pixel density-Bkg/area (3 hours) [11] | Pixel density-Bkg/area (24 hours) [11] | mHO-1/GAPDH [12] | mNGAL/GAPDH [13] | competition with kidney uptake of SEQ ID NO: 4-AF647 (FIG. 11) [14]
GGYSRCQLQGFNCVVRSYGLPTIPCCRGLTCRSYFPGSTYGRCQRY [SEQ ID NO: 53] | 0.35 | 19 mg/dL and 22 mg/dL | 20.5 | normal renal physiology | – | – | – | – | – | – | – | – | – | – | – | – | – | – | –
GSVFINVKCRGSPECLPKCKEAIGKSAGKCMNGKCKCYP [SEQ ID NO: 36] | 0.4 | 22 mg/dL and 21 mg/dL | 21.5 | normal renal physiology | Resistant | Not Resistant | Resistant | Not Resistant | – | – | – | – | – | – | – | – | – | – | –
GSSCARPRENCNRMNILCCRGECVCPTFGDCFCYGD [SEQ ID NO: 54] | – | – | – | – | – | – | – | – | 0.74 | 0.26 | 26 | 2.42 | 0.8 | 7.2 | 1.48E+06 | 1.95E+06 | 0.65 | 1.58 | –
GSQKILSNRCNNSSECIPHCIRIFGTRAAKCINRKCYCYP [SEQ ID NO: 20] | 0.5 | 29 mg/dL and 21 mg/dL | 25 | normal renal physiology | – | Partially Resistant | – | Resistant | – | – | – | – | – | – | – | – | – | – | –
KKEEEKKEEEKKEEEKK [SEQ ID NO: 121, reference compound] | – | – | – | – | – | – | – | – | – | – | – | – | – | – | – | – | – | – | failed to compete
GSQFTNVSCTTSRECWSVCQRLHNTSRGRCMNRRCRCYS [SEQ ID NO: 5] | – | – | – | – | Resistant | Resistant | – | Resistant | 0.79 | 0.23 | 23 | 2.55 | 27.2 | 6.4 | 1.40E+07 | 1.81E+06 | 0.62 | 1.76 | –
